Results as given in article PMC4860041.

Molecular target: taxol-stabilized porcine microtubules (tubulin purified from porcine brain) (UniProt P02550)
Assay: co-sedimentation

Chain of taxol-stabilized porcine microtubules (tubulin purified from porcine brain) (P02550 whole entry, looked up): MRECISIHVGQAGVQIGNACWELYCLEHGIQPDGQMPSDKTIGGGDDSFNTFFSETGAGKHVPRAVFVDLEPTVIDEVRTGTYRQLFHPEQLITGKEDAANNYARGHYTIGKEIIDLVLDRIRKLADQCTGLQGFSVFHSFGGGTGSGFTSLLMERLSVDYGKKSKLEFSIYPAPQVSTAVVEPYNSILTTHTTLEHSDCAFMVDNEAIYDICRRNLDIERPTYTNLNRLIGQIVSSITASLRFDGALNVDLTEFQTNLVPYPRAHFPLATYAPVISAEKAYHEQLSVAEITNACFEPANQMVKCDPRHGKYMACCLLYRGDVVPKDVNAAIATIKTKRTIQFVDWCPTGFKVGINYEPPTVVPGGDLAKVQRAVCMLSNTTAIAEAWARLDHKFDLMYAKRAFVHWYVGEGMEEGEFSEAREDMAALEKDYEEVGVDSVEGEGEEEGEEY

Substance | apparent Km
recombinant GFP-B>A-MNB kinase (Basic-to-Acidic mutant, KKKRR 118-122 to EEEDD) | a Km of 4.46 ± 2.62 μM (mean ± s.d.)
recombinant full-length GFP-MNB kinase (Drosophila Minibrain, isoform E) | a Km of 0.96 ± 0.10 μM (mean ± s.d.)
